{
  "source": "paper PMC6168507",
  "about": "(2018)",
  "binders": {"B1": {"name": "TIMP-1 (protein)", "chain": "not shown"}},
  "molecular_target": "LRP-1 (Homo sapiens, UniProt Q07954)",
  "sequence (Q07954 20-4544)": "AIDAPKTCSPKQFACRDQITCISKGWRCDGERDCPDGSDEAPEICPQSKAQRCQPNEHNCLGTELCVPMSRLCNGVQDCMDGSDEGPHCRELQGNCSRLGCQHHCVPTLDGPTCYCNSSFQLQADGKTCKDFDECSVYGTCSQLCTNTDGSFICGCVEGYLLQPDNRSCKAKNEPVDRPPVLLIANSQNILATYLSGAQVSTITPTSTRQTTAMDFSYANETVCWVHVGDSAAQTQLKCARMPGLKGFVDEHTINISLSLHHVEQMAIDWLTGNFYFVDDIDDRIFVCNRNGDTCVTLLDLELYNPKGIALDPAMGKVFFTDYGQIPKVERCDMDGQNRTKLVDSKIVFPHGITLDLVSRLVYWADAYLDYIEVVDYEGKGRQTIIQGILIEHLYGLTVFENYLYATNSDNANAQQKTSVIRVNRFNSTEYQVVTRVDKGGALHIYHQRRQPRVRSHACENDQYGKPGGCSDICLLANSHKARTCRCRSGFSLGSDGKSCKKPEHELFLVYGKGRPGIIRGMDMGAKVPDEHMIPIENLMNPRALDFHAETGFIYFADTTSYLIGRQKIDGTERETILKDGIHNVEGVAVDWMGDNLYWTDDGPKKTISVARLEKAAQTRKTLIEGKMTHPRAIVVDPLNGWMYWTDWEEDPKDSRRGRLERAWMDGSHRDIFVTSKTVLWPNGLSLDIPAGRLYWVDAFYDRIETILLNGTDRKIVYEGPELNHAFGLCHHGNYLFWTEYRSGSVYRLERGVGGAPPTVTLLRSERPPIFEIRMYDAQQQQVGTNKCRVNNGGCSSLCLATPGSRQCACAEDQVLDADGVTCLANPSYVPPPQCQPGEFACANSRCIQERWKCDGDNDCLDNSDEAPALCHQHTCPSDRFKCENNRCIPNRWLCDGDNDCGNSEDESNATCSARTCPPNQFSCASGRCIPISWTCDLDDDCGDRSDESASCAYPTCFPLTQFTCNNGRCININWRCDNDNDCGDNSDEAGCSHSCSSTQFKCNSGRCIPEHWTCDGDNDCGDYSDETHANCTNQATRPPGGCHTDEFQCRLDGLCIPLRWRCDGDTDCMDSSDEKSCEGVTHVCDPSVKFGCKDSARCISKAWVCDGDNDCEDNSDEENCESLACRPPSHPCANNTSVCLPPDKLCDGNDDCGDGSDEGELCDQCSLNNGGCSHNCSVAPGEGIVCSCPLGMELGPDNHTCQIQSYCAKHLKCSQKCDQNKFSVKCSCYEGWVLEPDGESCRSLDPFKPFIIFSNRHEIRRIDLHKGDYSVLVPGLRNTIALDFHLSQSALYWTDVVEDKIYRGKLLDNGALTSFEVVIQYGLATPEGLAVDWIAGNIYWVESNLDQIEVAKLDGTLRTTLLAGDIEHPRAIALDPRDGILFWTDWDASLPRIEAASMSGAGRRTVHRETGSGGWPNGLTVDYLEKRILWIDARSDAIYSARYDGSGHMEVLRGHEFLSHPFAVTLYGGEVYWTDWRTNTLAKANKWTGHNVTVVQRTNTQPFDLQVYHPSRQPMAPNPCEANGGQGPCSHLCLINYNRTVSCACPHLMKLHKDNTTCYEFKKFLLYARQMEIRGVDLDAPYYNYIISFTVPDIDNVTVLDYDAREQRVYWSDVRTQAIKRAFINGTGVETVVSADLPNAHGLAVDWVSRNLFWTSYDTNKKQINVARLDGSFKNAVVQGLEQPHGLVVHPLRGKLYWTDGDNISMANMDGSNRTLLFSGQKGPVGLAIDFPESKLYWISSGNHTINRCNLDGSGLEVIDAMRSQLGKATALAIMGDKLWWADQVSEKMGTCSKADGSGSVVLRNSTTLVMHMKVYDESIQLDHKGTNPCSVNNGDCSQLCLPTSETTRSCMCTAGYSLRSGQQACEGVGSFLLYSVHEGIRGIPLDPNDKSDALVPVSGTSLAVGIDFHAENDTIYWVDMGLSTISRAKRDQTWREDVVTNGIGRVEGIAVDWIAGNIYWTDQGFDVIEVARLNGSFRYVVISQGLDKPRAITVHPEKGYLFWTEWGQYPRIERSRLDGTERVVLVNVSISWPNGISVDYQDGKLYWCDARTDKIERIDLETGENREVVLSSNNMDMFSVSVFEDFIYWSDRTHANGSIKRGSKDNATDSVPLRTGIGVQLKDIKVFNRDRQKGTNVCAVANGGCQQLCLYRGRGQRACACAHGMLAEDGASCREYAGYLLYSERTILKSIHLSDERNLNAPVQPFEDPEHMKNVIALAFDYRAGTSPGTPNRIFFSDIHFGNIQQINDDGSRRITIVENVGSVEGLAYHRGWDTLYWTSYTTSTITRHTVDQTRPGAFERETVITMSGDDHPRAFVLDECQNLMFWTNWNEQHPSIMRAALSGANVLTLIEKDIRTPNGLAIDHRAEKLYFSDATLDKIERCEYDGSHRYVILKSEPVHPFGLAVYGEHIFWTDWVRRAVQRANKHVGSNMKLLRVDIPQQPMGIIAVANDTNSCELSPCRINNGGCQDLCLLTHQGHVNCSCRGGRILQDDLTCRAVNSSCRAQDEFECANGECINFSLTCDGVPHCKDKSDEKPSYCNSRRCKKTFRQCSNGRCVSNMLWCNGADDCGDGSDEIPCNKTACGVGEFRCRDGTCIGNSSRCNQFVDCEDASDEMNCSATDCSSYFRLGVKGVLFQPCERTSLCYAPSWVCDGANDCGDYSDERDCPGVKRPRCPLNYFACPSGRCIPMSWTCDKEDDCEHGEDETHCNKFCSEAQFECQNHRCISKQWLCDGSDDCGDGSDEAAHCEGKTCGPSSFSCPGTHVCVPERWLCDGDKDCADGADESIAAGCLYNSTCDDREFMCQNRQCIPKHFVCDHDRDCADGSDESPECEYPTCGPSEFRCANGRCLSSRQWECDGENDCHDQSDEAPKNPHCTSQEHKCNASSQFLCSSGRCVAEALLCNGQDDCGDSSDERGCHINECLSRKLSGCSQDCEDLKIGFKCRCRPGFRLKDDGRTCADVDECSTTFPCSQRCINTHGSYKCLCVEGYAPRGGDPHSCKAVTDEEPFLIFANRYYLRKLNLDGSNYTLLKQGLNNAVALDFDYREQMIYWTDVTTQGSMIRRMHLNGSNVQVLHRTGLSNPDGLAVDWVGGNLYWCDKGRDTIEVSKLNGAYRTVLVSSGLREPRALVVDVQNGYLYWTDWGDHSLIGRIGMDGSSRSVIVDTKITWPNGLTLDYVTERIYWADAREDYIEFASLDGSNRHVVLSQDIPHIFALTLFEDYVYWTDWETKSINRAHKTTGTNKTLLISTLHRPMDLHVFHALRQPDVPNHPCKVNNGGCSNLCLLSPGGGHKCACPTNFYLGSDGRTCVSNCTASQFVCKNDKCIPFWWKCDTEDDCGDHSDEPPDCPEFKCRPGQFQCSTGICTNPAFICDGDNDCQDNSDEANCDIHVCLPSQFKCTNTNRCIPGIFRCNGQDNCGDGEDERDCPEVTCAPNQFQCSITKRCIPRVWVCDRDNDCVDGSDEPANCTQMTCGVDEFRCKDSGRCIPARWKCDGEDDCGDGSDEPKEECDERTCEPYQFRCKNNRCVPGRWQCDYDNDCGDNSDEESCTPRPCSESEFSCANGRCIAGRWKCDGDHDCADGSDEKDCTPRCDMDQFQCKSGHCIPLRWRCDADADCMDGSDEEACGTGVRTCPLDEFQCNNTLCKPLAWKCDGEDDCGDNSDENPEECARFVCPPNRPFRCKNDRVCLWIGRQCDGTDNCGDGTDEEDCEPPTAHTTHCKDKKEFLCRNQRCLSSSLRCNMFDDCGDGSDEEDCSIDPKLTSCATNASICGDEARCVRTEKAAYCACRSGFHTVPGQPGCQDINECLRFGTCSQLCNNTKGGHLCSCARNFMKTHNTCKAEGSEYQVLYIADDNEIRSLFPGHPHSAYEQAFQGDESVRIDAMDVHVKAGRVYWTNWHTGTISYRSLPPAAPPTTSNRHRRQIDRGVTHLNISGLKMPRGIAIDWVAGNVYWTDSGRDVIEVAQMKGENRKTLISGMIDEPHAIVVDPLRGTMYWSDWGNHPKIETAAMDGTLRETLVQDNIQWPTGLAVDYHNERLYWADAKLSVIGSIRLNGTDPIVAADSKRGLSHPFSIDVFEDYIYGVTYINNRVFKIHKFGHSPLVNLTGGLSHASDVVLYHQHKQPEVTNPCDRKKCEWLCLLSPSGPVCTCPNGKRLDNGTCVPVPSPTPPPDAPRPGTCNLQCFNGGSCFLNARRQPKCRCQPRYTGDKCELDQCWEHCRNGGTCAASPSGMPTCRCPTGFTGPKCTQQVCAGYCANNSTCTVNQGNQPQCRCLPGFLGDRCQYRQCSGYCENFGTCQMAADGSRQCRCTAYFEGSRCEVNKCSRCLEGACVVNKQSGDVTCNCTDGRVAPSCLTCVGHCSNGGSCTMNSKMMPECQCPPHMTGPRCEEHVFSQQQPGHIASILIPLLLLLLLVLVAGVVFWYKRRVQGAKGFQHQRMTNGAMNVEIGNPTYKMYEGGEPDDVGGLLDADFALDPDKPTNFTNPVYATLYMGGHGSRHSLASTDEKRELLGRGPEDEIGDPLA",
  "assay": "ELISA",
  "data": [
    {"binder": "B1", "values": [
      {"measurement": "Kd", "value": 16, "unit": "nM"}
    ]}
  ]
}
